Values of other authors in patent publication US20080125354A1, “SELECTIVE INHIBITION OF MATRIX METALLOPROTEINASES” (Florida Atlantic University, priority 2005, published 2008).

Assays:
MMP-2 [1] = biological target: T1, MMP-2 (Homo sapiens, UniProt P08253); conditions: 30° C., 40 nM enzyme, 40 μM substrate
T1 sequence (P08253 110-660): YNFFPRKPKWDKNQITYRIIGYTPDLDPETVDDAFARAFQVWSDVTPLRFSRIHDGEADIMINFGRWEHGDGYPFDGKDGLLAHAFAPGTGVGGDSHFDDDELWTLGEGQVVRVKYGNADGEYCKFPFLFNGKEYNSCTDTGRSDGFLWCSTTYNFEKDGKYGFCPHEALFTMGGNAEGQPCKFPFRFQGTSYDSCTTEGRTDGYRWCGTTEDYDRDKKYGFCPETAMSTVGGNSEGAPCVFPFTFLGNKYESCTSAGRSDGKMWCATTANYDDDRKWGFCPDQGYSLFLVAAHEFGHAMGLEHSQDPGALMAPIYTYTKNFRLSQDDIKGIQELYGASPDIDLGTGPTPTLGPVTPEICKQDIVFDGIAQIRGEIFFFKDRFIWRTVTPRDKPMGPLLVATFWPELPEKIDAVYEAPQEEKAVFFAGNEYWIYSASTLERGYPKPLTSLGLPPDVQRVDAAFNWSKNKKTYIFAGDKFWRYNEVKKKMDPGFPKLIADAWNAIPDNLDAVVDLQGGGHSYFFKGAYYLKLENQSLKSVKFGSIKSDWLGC

MMP-1 [2] = biological target: T2, MMP-1 (Homo sapiens, UniProt P03956); conditions: 30° C., 40 nM enzyme, 40 μM substrate
T2 construct: made in house
T2 sequence (P03956 100-469): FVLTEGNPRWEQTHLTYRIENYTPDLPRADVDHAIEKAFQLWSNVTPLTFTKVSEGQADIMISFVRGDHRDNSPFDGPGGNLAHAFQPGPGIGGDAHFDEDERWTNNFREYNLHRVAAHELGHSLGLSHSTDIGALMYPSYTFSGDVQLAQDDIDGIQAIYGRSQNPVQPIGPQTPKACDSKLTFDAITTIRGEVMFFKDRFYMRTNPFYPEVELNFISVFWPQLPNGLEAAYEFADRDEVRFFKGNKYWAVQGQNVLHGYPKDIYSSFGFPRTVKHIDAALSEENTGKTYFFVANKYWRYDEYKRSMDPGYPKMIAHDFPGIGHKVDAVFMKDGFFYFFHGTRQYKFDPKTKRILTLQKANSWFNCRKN

MMP-14 = MMP-14 (Homo sapiens, UniProt P50281); conditions: 30° C., 40 nM enzyme, 40 μM substrate
MMP-3 = biological target: T3, MMP-3 (Homo sapiens, UniProt P08254); conditions: 30° C., 40 nM enzyme, 40 μM substrate
T3 construct: made in house
T3 sequence (P08254 100-477, species assumed): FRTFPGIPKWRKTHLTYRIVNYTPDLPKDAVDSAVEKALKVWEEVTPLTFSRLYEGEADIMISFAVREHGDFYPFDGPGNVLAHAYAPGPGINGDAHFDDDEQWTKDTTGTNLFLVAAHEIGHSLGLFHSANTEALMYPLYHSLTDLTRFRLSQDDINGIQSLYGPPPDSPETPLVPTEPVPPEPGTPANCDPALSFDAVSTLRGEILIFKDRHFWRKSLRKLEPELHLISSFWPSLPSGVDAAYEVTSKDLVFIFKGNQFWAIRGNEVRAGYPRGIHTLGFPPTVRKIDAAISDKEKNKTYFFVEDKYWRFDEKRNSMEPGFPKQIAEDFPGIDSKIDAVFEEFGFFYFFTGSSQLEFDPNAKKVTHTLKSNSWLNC

MMP-13 = biological target: T4, MMP-13 (Homo sapiens, UniProt P45452); conditions: 30° C., 40 nM enzyme, 40 μM substrate
T4 construct: purchased R&D Systems (Minneapolis, Minn.)

MMP-8 = biological target: T5, MMP-8 (Homo sapiens, UniProt P22894); conditions: 30° C., 40 nM enzyme, 40 μM substrate
T5 construct: made in house; host or cells: CHO-K1 cells
T5 sequence (P22894 101-467, species assumed): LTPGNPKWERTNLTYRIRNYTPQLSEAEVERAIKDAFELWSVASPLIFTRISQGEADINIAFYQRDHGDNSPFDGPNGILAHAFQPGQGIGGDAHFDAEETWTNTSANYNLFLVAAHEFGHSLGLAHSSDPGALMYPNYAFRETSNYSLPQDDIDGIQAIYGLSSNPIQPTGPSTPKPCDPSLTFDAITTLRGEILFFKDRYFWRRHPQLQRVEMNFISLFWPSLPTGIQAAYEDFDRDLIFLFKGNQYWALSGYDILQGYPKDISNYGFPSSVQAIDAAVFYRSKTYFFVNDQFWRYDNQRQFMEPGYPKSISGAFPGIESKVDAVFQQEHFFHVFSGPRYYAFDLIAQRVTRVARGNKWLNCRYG

MMP-2 [3] = biological target: T1, MMP-2; conditions: MMP-2, earlier study
MMP-9 = MMP-9 (Homo sapiens, UniProt P14780); conditions: 30° C., 40 nM enzyme, 40 μM substrate
Sequence of MMP-9 (P14780 94-707): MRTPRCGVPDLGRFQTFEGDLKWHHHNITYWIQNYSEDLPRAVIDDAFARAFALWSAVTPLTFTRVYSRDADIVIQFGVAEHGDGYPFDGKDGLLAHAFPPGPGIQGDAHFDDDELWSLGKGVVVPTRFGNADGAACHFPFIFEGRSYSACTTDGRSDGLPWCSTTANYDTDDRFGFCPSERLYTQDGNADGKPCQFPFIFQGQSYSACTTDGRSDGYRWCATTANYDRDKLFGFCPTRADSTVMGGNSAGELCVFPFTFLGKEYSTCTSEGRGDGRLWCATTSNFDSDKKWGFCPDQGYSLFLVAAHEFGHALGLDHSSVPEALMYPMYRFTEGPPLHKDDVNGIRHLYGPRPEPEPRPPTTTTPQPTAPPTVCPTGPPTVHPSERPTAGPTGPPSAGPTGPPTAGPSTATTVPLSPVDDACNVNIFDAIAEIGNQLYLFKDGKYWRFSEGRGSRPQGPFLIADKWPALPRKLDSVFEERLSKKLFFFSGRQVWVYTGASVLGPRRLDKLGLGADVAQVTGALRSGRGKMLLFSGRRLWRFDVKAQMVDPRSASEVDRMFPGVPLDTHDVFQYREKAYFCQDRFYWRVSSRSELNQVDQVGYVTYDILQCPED

MMP-1 [4] = biological target: T2, MMP-1; conditions: MMP-1, second earlier study

## (Gly-Pro-Hyp)5-Gly-Pro-Gln-Gly˜Leu-Ala-Gly-Gln-Arg-Gly-Ile-Arg-(Gly-Pro-Hyp)5-NH2 [SEQ ID NO: 6]
MMP-2 [1]
  hydrolysis of the substrate by MMP-2 (in words): hydrolyzed the substrate efficiently
MMP-1 [2]
  hydrolysis of the substrate by MMP-1 (in words): hydrolyzed the substrate efficiently
MMP-14
  hydrolysis of the substrate by MMP-14 (in words): hydrolyzed the substrate efficiently
MMP-3
  hydrolysis of the substrate by MMP-3 (in words): did not
MMP-13
  hydrolysis of the substrate by MMP-13 (in words): hydrolyzed the substrate efficiently
MMP-8
  hydrolysis of the substrate by MMP-8 (in words): hydrolyzed the substrate efficiently

## (Pro-Pro-Gly)6-NHOH
MMP-2 [3]
  IC50: 160 µM

## (Pro-Pro-Gly)12-NHOH
MMP-2 [3]
  IC50: 90 µM

## C6-(Gly-Pro-Hyp)4-Gly-Pro-Pro-Gly˜Val-Val-Gly-Glu-Gln-Gly-Glu-Gln-Gly-Pro-Pro-(Gly-Pro-Hyp)4-NH2 [SEQ ID NO: 5]
MMP-9
  time to hydrolysis of the substrate by MMP-9: ≤ 1 h
MMP-1 [2]
  hydrolysis of the substrate by MMP-1 (in words): did not cleave the substrate even after 24 h

## hydroxamate-containing peptidomimetic onto the N-terminus of (Gly-Pro-Hyp)-4-Gly-Pro-Pro-Gly-Ser-Ser [C-terminally branched construct of a second earlier study carrying a hydroxamate-containing peptidomimetic]
MMP-1 [4]
  IC50: ~0.009 µM
